Reference: doi:10.1101/2022.02.23.481653 (bioRxiv, 2022)
Substitutions are numbered along the chain they refer to. Names and notes keep the numbering of the source.

B1: SEPT2-msfGFP (wild type) (natural protein)
chain: MSKQQPTQFINPETPGYVGFANLPNQVHRKSVKKGFEFTLMVVGESGLGKSTLINSLFLTDLYPERVIPGAAEKIERTVQIEASTVEIEERGVKLRLTVVDTPGYGDAINCRDCFKTIISYIDEQFERYLHDESGLNRRHIIDNRVHCCFYFISPFGHGLKPLDVAFMKAIHNKVNIVPVIAKADTLTLKERERLKKRILDEIEEHNIKIYHLPDAESDEDEDFKEQTRLLKASIPFSVVGSNQLIEAKGKKVRGRLYPWGVVEVENPEHNDFLKLRTMLITHMQDLQEVTQDLHYENFRSERLKRGGRKVENEDMNKDQILLEKEAELRRMQEMIARMQAQMQMQMQGGDGDGGALGHHV
B2: SEPT2NCmut-msfGFP (SEPT2 F20D, V27D) (natural protein)
chain: B1 chain with F20D, V27D

Molecular target: the molecule itself
Assay: native gel or EMSA

| Protein | stoichiometry N |
| --- | --- |
| B1 | 2 |
| B2 | 2 |
